Measurements from a protein production outcome set (Wang et al. 2014).

Assay: label from the status in PepcDB records

Sequence | protein production
MADTNYIRDLSLHRNNHVLYVKILSIWDNQSMIFGTPTTMILYDVKGTRIDTRVPWGDYLNNFKPSLFEGKWYYIADFRLKRATSIPKYSSFNYEIEFMWHTKMWPVSDRSDESSLQFIHADEIESESEDYVTDAIGVISSVSTEARFPYVCREGETDYEARYVTFTIRDNLDRIITCVARGSACESFLTKFYRLIGMKTYNYEPITTVLRFFRASNFKGSKALISEHGCSRIFIEESFPDFDVTVYINWFACEDDGSVEGKIEYFVEN | failed
MADWLIGIIMGAVEGLTEFLPVSSTGHMILTGHLLGFDDERAKVFEVVIQLGSILAVVVIFWKRLWSLVGIGKVTDGPSLNLLHIIIGMIPAGVLGVLFHSAIKEVLFGPGPVVISLVAGGILMIVAEKFSKPSTARTLDEITYKQAFTIGMFQCLALWPGFSRSGSTISGGLLARVSHTAAAEYTFILAVPMMVAASGLDLIKSWDILSAADIPLFATGFITAFVVAMLAIVSFLKLLSRVKLTPFAYYRFILAAVFYFFIM | failed
MADWVTGKVTKVQNWTDALFSLTVHAPINPFTAGQFTKLGLEIDGERVQRAYSYVNAPDNPNLEFYLVTVPQGKLSPRLAALKPGDEVQVVSDASGFFVLDEVPDCETLWMLATGTAIGPYLSILQYGQDVARFKNLVLVHAARFAADLSYLPLMLELQQRYEGKLRIQTVVSRENVPGSLTGRVPALIENGELEKAVGLPMDKETSHVMLCGNPQMVRDTQQLLKETRQMTKHLRRRPGHMTAEHYW | not failed
MAEASATEPERPDQESADDAVIATRALTKRYRGGQLAVDGLDLTVPAGSVFGFLGPNGSGKTTTIRMLMGLIEPTSGSARVLGRPMPRAARAVLPRVGALIEGPALYGFLSGRDNLLRYDAADPTADPRTRRERVAAALDRVGLAAAGGKKAKAYSLGMKQRLGLAAALLQPRRLLVLDEPTNGLDPQGMREIRSLVRELASDGTTVFLSSHLLDEIEQVCTHAAVMAQGRLITQGAVADLAAGARGRLVVTTPDAGDAARVLKEQGAADVVVDGDRVTAEPPERDLAEVNAALVAARVRVRGFVVERASLEDAFVALTGEGFDVAG | failed
MAEAVLENVNVPAVVSKDECIYCFESPYNEPLALNASPKHSLNICLNCFQATCNRHVPLHIRVTEYACDTIHSNYLTIAKVEKPKQENVEENNNNKKIKLQVIETSEDDTHNTIWSLQRFNGENVPRTVLSKSTDSDISSTALEKIEKILKAKSQDFEDKKNSWVLEISTCPHTENFQIPSKPENTVNLNQCSSCDLTQNLWLCLHCGNIGCGREQIGIDGHSHALDHYRSNNNHPLAIKLGSLSSSTYDLYCYACDDETRFPDNVNLGSALQIYGINIQEKIADEKTLVQLQVEQNENWQFRMVDSSGKEFEKLSASKNYGCGLINLGNSCYLNSVIQSLVNGGVPNWSLDFLGSKFPLDVVYPDNNLKCQWIKLLNAMKCEPELYPNGIKPTTFKKCIGQNHQEFSSNRQQDAMEFLTFLLDLLDKKFFSSSSSGIPNPNDLVRFMMEDRLQCNICGKVKYSYEPTEAIQIPLEENDEPQDMLERIKAYFEGQTIEFKCANCKEKVTANKKPGFKSLPQTLILNPIRIRLQNWIPVKTSNELSLPGLIDRDDMLDVSSYLSQGFDPQTENLLPDEDENRSSFTPNQCSISQLIEMGFTQNASVRALFNTGNQDAESAMNWLFQHMDDPDLNDPFVPPPNVPKKDKREVDEVSLTSMLSMGLNPNLCRKALILNNGDVNRSVEWVFNNMDDDGTFPEPEVPNEEQQQKKDLGYSTAKPYALTAVICHKGNSVHSGHYVVFIRKLVADKWKWVLYNDEKLVAADSIEDMKKNGYIYFYTRC | failed
MAEEQAATAMETSAVEKQPETTTEAEAPSLTTKRMVVAIDESDSSFYALQWVIDHFSNLLLTTAAAEAESGMLTVIHVQSPFNHFAAFPAGPGGATAVYASSSMIESVKKAQQETSAALLSRALQMCRAKQIRTETLVLEGEAKEMICEAVEKMHVDLLVVGSRGLGKIKRAFLGSVSDYCAHHANCPILIVKPPKEMTK | failed
MAEERSLNGEATGQDDESFFDSDQQGDDGKSTELNQKIGDLESQNQELARDNDAINRKIESLTAEIEELRGAESKAKRKMGEMEREIDKSDEERKVLEAIASRASELETEVARLQHELITARTEGEEATAEAEKLRSEISQKGGGIEELEKEVAGLRTVKEENEKRMKELESKLGALEVKELDEKNKKFRAEEEMREKIDNKEKEVHDLKEKIKSLESDVAKGKTELQKWITEKMVVEDSLKDSEKKVVALESEIVELQKQLDDAEKMINGLKNVVEEPLNGIEFKSWSPNVTAVGSGGAVAAVAVAVAGAAVVCYIYHSRRV | failed
MAEGKDRNFVTALARGLDVLRSFRPGEVLLTNTDLSERTGLPKPTVSRLTYTLCQLGYLVQDRQSGAYRLGVGVLQLGMGVLAGLDICDRAAEVLRGLRTGANPYITAALGEVHRAEVIYVAVSRSRENVSLSMHVGSRLPLFRSAIGRAILVGMEAEEREAAIAAGMRDLGVPEAELRSQIARAVEEYAVRGYCTGYGDWRADVNGIAVPVLSLGGARLHGLNLGGPSFHVTQEELERVFAPLLIEAGRSLGMVP | failed
MAEICLITGTPGSGKTLKMVSMMANDEMFKPDENGIRRKVFTNIKGLKIPHTYIETDAKKLPKSTDEQLSAHDMYEWIKKPENIGSIVIVDEAQDVWPARSAGSKIPENVQWLNTHRHQGIDIFVLTQGPKLLDQNLRTLVRKHYHIASNKMGMRTLLEWKICADDPVKMASSAFSSIYTLDKKVYDLYESAEVHT | not failed
MAEIKHYQFNVVMTCSGCSGAVNKVLTKLEPDVSKIDISLEKQLVDVYTTLPYDFILEKIKKTGKEVRSGKQLAREVILAVHGMTCSACTNTINTQLRALKGVTKCDISLVTNECQVTYDNEVTADSIKEIIEDCGFDCEILRDS | not failed
MAEIQFSKGVAETVVPEVRLSKSKNGQSGMAKFYFLEPTILAKESTDDITGMYLIDDEGEIITREVKGKFINGRPTAIEATVILNSQPEWDRFMRFMERYGAENGLGFSKSELEHHHHHH | not failed
MAEKISVKTADTNADEIDLGRLLGTLLDNRWLIIGVTAIFLIFGILYATLATPIYKADALVQVEKNSSNKLINDITSMLPDAKPESAAEVELITSRMIIGKTVNDLALDINVQQNYFPFFGKGIARLTGATKGVLAVSRLEVPDSWKDEPIILTVTDNKNYSISAGDAVRFEGQVGRLERHDGMTLLISDIAADEGTTFSIKKLNQLTAINNILKTLTVADRGKDTGVLALSLEGEDPILTNKILNSISENYLQQNVERKSEESGRSLEFLKEQLPNVRSILDEADNKLNIFRQKNESVDLSLEAKSVLETMVALEAQLNELTFKEAEISKLYTKEHPAYRALLEKRKTLEEEKEKINKRVGAMPKTQQEIIRLTRDVKAGQEVYMQLLNKQQELSINKASTVGNVRIIDSAVVQLRPVKPEKVFIVLLSIILGGLLSVSFVLIRTILHKGIESPEQLAELGISVYASVPLSAWQQKKDRALLGKGKRGNTRSTELLAVGNPADLAIEAIRSLRTSLHFAMMEAKNNVLMISGASPAIGKTFVSANLGAVIAQSGQRVLIVDCDMRKGYAHELMGCQGTDGLSDILSGQITTDKSIRKTAVENMDFIPRGQIPPNPSELLMHSRFSQFIDWATKNYDIVLLDTPPILAVTDAAVISRHAGTSLLVARFEVNTLKEIEVSIRRFEQNGTEIKGVILNAIVKRAASYYSYGNYDYYSYEYKSDK | failed
MAEKKWFDKVLSKWQYEPIQVFMRHLQSAEMDLSAIAVAYYLILTAFPLIVIAANIFPYLNIDIADLLRLMKQNLPKDIFRPASAIVENIFSKPSGSVLGVATLTGLWTMSRSLTSLQKAINKAYGASQHRDFFIGHLVGLLTSLIILFLLAFALIFSIFSKAAIQVLDKHYHLSDNITTIFLLLIQPITVLIIFVGLMLLYFLLPNVKIKKIRYILPGTLFTSFVMTFLSNLVGNYVVYNVERMVDIKMFGSVMIFIIMLWFIFLARILILGAIFNATYQEMSLGKLEGRSGDMIAILKKTLGNDSDLSPSQSIEDSHTD | failed
MAELAANDIDSALRWLERAIDHDPEYSSAYAALGDIYQRTNDPVEADYCLRMALRCSPDSSEILHKLARNCVTLGNRSEALALLREAKDRHSGSVDFLSQLALIYDDLDETDLAICTWEEVIALNPLDASAHNNLGLQWHYGKGDVDKALDCFMRALQLNPCLTEARFNLYQAKADAGKVDEALAGFESMLAEPFREEVMFHRSIMLLKNRRFGEGWREYHLRWRYRGTQSRSFPFPNWDGQPCTGKTLLVYGEQGLGDEIMFASCLRDLHEKTGAKIVLECNTRLESLFRRSFPGITVIGRSSAQTSADGLASGATIDFQTAIGDLPGMFRAEEAAFPNHRGYLVADPKRVTFWKDRLAALGEGPKIGISWRGGQGKTRREARSIPLQEWHPILAAEGRHFVSLQYTDCRQELQALEEQHGIVIHHWQEAIDDYDETAALVMALDKVITVCTSIVHLTGALGRPAWVLVPRVPEWRYLASGETMPWYPSVRLFRQPRAGDWAPVLRDIAWKLGTVARRVDHDLG | failed
MAELEAVADDLDALIDDLDYLPGHFHLEMQLNFEPRSPAPQRARDLKLQREGLRQELQLAAAPQRPAVRHLLGAFAFYLEELDEARECFLEVAHEHPGNLNAWANLAHVYGRLGQEEEEEACAARLADLMGLAEEPEAAGDPQLRAARCLAEQGYAHGFDVGCASPEERARGLAAGIALYDKALGYGQQIPMEEKRGWYFTMATLYIRLDGIFLELGSEEQKRLPAFNRTLALLRQVLKSEDPRHRALAWCYLGMLLERKDTFSTTPMGVHDCGYSGTDPLDCFGKAIEIAKNQPPILNRLAKIFYFLGKQDMAIGTCNMALDVLRDPELNWQAYCTRAKIHIRAYLHDLKRAKMGLGGMPDRNHLACAKADLEEVVRVCPGFKAYLDIGQVYYYMGVDAVQELLAVDEAALNQALVFLAKAGESELGATLPELQLLRGKCLRIKGEDANAAACFKRAVELDDAGSSHTDGFGCLLEALLAQWSQAQLSDGELGREVDAWLRRAQDKYPAARLRQELQRVWRGHTDEVLGLARALVAQGRPALVRLLFETMEREGEGASAPRDRRAVSF | failed
MAELENPSVMSKLIAFLSSLLERVAESNDLTRRVATQSQRVSVFHGLSRPTITIQSYLERIFKYANCSPSCFVVAYVYLDRFTHRQPSLPINSFNVHRLLITSVMVAAKFLDDLYYNNAYYAKVGGISTKEMNFLELDFLFGLGFELNVTPNTFNAYFSYLQKEMTLLQPLSLVVVPSSRSLITFNDDEASHQKQQQQQLAV | failed
MAELGITLRTVQSLGPGETIWDAGHRAAVRGFGVRRQRGAPVYVLKYRAHGRQRFFTIGPHGSPWTPERARREAKRLLGLVADGKDPADDRAEAALQAADTLLKIADQYLKHAKQKQRPRTYSEIERYLLTAWKPLHPVSVFLIKRRHVAIRIAEIATGQGAVTAARARAALSAMFNWAIREGLDIPANPVLGTNRPAAPRSRDRVLADGELAEIWAALGDDDYGRIVKLLLLTAQRREEVGSMRRTELDLENSVWKIPGNRTKNHREHKVPLTKAAIALIPLPRGNREYVFGDGPRREGDNHRGYSGWSKSKAGLDARLLAVRQKALDAGVAAEPLPDWHLHDLRRTAATVMADRLGVFPHIVEAVLNHVSGHRAGVAGVYNLARYETDMRAALNAWADNIKDIVAS | failed
MAENGESSGPPRPSRGPAAAQGSAAAPAEPKIIKVTVKTPKEKEEFAVPENSSVQQFKEAISKRFKSQTDQLVLIFAGKILKDQDTLIQHGIHDGLTVHLVIKSQNRPQGQSTQPSNAAGT | failed
MAEQKNHNNELNVEDALTQSEAFLVKNKKAIIGAVVAVIVIVAGAILYKNFYAEPREEKAQAALFKSEQYFEQSAYEQALNGDSIGSIGFLKVADQFSGTKAANLAKAYAGICYQNLGKYEEAIKALDGFSGDDQMVAPAIQGAIGNCYAQLGQLDKATSALLKAADHADNSTLSPIFLLQAGEILMKQGKNEEAVKAFTKIKDKYFQSYQAMDIDKYIEQAKLLKK | failed
